{
  "source": "patent US20170096478A1",
  "about": "“THERAPEUTIC AGENT FOR INFLAMMATORY DISEASE” (Josai University Corporation, priority 2012, published 2017)",
  "key": {"[1]": {"system": "T cells from a Balb/c mouse", "assay": "MLR tests with T cells with or without mitochondria ATP synthase knock-down by siRNA", "format": "cell-based"}, "CD3 positive T cells": {"system": "CD3 positive T cells", "assay": "Reactivity of the monoclonal antibody with T cells by flow cytometry (FACS)", "format": "cell-based, C57BL/6 mouse", "conditions": "unstimulated T cells, 16G9 mAb compared with SSV mAb", "procedure": "Using the following approach, spleen was removed from a C57BL/6 mouse (5 weeks old, female, CHARLES RIVER LABORATORIES JAPAN, INC.) to prepare whole splenic cells.\nFirst, in a 5 ml culture dish (BD Bioscience FALCON 351007) into which 5 ml RPMI 1640 culture medium (Sigma-Aldrich, R-8758) was transferred, spleen was disentangled well with scissors for dissection and forceps to suspend the splenic cells, which were then transferred to a 15 ml centrifuge tube (BD Bioscience FALCON 352096). Then, the 5 ml dish was washed several times with phosphate-buffered saline (PBS, Invitrogen, 20012-027), and these were also added to the foregoing cell suspension and allowed to stand, and then the supernatant was collected in another 15 ml centrifuge tube. In addition, 5 ml RPMI 1640 culture medium was also added to the residual insoluble spleen tissue again and allowed to stand, and then only the supernatant was collected, which was combined with the above-mentioned cell suspension to perform centrifugation at 1,500 rpm for 5 min. To the collected cells, added was 2 ml lysis buffer (150 mM NH4Cl/15 mM NaHCO3/0.1 mM EDTA-Na2, pH 7.3) and hemolyzed by tapping, and then 10 ml PBS was added. After washed 3 times by centrifugation at 1,500 rpm for 5 min, whole splenic cells were obtained. […]\nThe reactivity of the above unstimulated with 16G9 mAb or SSV mAb was analyzed by flow cytometry (FACS). […]"}, "histone H2A": {"system": "histone H2A", "assay": "ELISA affinity for histone H2A", "format": "binding", "conditions": "absorbance at 405 nm; 5 μg/mL antibody; compared with histone H1", "procedure": "The Affinities between histone H1 or core histone and SSVmAb were determined by ELISA.\nA 96 well microplate was coated with histone H1, H2A, H2B, H3 or H4. Each histone used was dissolved in 100 mM sodium carbonate buffer (pH 9.3). The plate was washed with PBS-tween 20 (0.05%), and blocked with 3% skim milk and 1% BSA for 1 hour. To each well, 5 μg/mL SSVmAb was added, and incubated for 1 hour. Bound SSVmAb was detected using peroxidase (HRP) conjugated anti mouse IgG1 Ab (SIGMA), and incubated for 1 hour. Bound SSVmAb was detected using the ABTS [2,2′-azino-bis(3-ethylbenzothiazoline-sulfonic acid)] substrate solution, and absorbance at 405 nm was measured using Multiskan Ascent (Thermo Fisher Scientific Inc., Waltham, Mass.)."}, "[2]": {"system": "spleen lymphocytes from a naive DA rat (responsive cells) and from a LEW rat (stimulated cells)", "assay": "MLR tests (mixed lymphocyte reaction, BrdU incorporation)", "format": "cell-based", "procedure": "Spleen lymphocytes from a naive DA rat (responsive cells) and spleen lymphocytes from a LEW rat treated with mitomycin-C (Kyowa Hakko Kogyo Co., Ltd.) (stimulated cells) were used. The responsive cells were adjusted to 5×10^5 cells/mL with 10% FCS-RPMI culture medium, and the stimulated cells were adjusted to 8×10^6 cells/mL with 10% FCS-RPMI culture medium. After plating the responsive cell suspension and the stimulated cell suspension in an amount of 100 μL to a 96 well round-bottom plate (Nunc Brand Products) respectively, the monoclonal antibody 16G9mAb of Reference Example 1 (0.1, 2, 4, or 6 μg/mL/well) or the monoclonal antibody SSVmAb of Example 1 (4 μg/mL/well) was added at the start of mixed culture, and cultured for 3.5 days or longer under the conditions of 37° C., 5% CO2/95% air. In addition, an immunosuppressive agent tacrolimus (FK506: Fujisawa Pharmaceutical Co., Ltd., 1 nM/well) was added as a positive control. Further, 10 μL bromo deoxyuridine (BrdU) was added 15 hours before the end of culture. Then the proliferation potential of the cells treated with the immunosuppressive agent was measured using BrdU labeling & detection kit III (Roche Diagnostics K.K.) using the amount of BrdU incorporated into cellular DNA as an indicator."}},
  "data": [
    {"molecule": "SSV mAb: monoclonal antibody (IgG1) produced by Mouse-Mouse hybridoma SSV-C 93-3 (NITE BP-972), raised against peptide … (SEQ ID NO:1)-KLH conjugate (antibody, V domains shown) VH: EIQLQQSGAELVKPGASVKISCKASGYSFTGYNMNWVKQSHGKSLEWIGNINPYYGSTSYNQKFKGKATLTVDKSSSTAYMQLNSLTSEDSAVYYCARSPYYSNYWRYFDYWGQGTTLTVSS VL: QIVLSQSPAILSASPGEKVTMTCRASSSVSYMHWYQQKPGSSPKPWIYATSNLASGVPARFSGSGSGTSYSLTISRVEAEDAATYYCQQWSSNPWTFGGGTKLEIK", "values": [
      {"measurement": "cell growth inhibition in MLR compared with Isotype IgG1", "setting": "[1]; ATP synthase knocked down", "result": "no significant difference"},
      {"measurement": "cell growth inhibition in MLR compared with Isotype IgG1", "setting": "[1]; ATP synthase not knocked down", "result": "significantly inhibited cell growth"},
      {"measurement": "reactivity with CD3 positive T cells", "setting": "CD3 positive T cells", "result": "comparative reactivity"},
      {"measurement": "affinity for histone H2A (ELISA)", "setting": "histone H2A", "result": "higher than the affinity for histone H1"},
      {"measurement": "absorbance which indicates the amount of incorporated BrdU", "setting": "[2]; 4 μg/mL/well, mean±S.E.", "result": "0.552±0.114"},
      {"measurement": "absorbance (incorporated BrdU) compared with Reference Example 1 (16G9mAb) and tacrolimus (FK506)", "setting": "[2]; SSVmAb 4 μg/mL/well, FK506 1 nM/well", "result": "lower"},
      {"measurement": "mean absorbance of Example 1 relative to that of Reference Example 1", "setting": "[2]; same amount added, 4 μg/mL/well", "result": "about 41%"}
    ]}
  ]
}
